Measurements reported in patent publication US9187525B2, “Methods of treating ophthalmic diseases using NPR-B agonists” (Shire Orphan Therapies GmbH, dated 2015).
Bridge positions count the residues as written; N and C are the ends. Ends that are not written are not given here.

How the values were obtained:
[1] = target: T1, natriuretic peptide receptor-B (human); assay: cell-based or functional assay
T1 chain: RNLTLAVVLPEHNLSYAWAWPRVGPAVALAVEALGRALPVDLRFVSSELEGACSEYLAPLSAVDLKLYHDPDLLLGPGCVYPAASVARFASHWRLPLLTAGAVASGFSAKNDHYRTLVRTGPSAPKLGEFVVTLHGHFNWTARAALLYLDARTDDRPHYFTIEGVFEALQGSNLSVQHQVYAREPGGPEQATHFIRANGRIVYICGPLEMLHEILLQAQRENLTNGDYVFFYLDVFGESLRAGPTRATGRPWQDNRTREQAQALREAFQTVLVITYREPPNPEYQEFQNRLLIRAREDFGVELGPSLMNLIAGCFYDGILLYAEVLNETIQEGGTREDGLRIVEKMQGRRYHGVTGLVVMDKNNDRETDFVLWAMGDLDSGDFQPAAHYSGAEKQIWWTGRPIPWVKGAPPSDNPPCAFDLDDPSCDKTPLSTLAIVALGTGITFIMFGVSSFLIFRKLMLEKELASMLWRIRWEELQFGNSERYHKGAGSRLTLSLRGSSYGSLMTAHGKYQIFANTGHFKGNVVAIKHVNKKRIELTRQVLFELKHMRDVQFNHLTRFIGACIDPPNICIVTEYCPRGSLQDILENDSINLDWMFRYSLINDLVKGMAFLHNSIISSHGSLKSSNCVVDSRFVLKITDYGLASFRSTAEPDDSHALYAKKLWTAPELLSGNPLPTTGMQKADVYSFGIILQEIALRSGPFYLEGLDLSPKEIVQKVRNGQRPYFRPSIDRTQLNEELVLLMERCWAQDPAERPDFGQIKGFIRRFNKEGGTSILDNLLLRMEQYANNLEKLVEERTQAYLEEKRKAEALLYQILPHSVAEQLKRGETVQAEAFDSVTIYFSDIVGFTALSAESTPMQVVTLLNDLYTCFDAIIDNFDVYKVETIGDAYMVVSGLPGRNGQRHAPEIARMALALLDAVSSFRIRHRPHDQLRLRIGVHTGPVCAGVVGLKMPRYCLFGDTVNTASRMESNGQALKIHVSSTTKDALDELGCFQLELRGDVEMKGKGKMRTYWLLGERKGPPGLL

[2] = target: T2, natriuretic peptide receptor-A (Homo sapiens); assay: cell-based or functional assay
T2 chain: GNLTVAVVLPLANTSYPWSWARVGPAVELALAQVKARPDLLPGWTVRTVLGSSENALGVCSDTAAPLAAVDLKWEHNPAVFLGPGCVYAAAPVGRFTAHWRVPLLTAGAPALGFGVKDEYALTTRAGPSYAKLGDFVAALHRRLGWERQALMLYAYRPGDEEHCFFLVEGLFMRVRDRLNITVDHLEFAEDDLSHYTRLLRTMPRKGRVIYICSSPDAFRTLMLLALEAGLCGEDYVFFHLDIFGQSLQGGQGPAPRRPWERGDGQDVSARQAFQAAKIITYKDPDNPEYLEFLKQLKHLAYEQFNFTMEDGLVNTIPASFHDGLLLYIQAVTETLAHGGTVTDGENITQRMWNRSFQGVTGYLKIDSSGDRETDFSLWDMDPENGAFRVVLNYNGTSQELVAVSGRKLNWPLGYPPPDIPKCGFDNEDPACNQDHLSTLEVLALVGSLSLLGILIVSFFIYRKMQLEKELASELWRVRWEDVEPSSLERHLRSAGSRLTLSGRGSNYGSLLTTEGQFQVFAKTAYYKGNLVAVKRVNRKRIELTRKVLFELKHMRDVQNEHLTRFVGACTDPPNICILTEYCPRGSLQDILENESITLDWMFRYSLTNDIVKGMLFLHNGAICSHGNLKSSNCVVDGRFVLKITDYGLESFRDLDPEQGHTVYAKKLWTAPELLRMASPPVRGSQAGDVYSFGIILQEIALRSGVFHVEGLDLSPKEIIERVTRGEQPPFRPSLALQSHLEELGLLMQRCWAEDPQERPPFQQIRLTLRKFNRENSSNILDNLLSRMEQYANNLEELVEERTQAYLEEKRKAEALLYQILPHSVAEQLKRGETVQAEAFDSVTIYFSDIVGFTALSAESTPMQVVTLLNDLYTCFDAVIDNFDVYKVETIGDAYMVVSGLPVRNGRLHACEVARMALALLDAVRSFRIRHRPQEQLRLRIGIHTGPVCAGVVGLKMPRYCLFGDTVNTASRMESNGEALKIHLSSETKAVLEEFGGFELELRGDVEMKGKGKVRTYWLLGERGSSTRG

MCHFGGRMDRISCYR [mini-ANP]
EC50, cyclic GMP production in GTM-3 cells [1]: > 45000 nM
Emax, cyclic GMP production in GTM-3 cells [1]: 0%
EC50, cyclic GMP production in NPR-A transfected 293-T cells [2]: 1540 nM

GLSKGCFGLKLDRIGSMSGLGC (ligand, disulfide 6-22 (inferred)) [C-type natriuretic peptide]
EC50, cyclic GMP production in GTM-3 cells [1]: 38.8 nM
Emax, cyclic GMP production in GTM-3 cells [1]: 100%
EC50, cyclic GMP production in NPR-A transfected 293-T cells [2]: 1600 nM

SLRRSSCFGGRMDRIGAQSGLGCNSFRY (ligand, disulfide 7-23 (inferred)) [atrial natriuretic peptide]
EC50, cyclic GMP production in GTM-3 cells [1]: 1630 nM
Emax, cyclic GMP production in GTM-3 cells [1]: 15%
